Reference: patent US10562947B2, “Compositions and methods for preventing or treating diseases, conditions or processes characterized by aberrant fibroblast proliferation and extracellular matrix deposition” (MOERAE MATRIX, INC., priority 2011, dated 2020)

What was measured:
Test in all cases: Kinase Profiling Assay
Assay type in all cases: biochemical
Conditions in all cases: 100 μM peptide
[1] = molecular target: F1t3(h) (Homo sapiens, UniProt P36888)
In short: (§1)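 Read-out is kinase activity, measured twice per kinase, across 266 human kinases exposed to MK2 inhibitory peptides in a specificity screen.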

[2] = molecular target: T1, IRAK1(h) (Homo sapiens, UniProt P51617)
T1 construct: purchased Millipore
In short: as §1

[3] = molecular target: T2, MST1(h) (Homo sapiens, UniProt Q13043)
T2 sequence (Q13043 1-487): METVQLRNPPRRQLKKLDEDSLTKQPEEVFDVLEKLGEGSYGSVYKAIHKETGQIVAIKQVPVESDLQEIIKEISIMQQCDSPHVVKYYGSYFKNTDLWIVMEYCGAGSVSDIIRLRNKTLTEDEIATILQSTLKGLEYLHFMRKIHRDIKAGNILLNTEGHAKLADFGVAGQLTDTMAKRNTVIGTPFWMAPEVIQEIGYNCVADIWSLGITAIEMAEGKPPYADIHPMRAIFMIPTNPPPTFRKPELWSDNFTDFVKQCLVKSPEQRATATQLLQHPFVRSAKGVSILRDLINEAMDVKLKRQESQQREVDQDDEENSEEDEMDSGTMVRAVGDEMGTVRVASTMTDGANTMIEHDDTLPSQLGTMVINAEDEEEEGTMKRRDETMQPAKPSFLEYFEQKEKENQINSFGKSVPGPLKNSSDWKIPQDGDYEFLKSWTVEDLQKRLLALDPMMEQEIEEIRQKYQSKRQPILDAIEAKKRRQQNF
In short: as §1

[4] = molecular target: Met(D1246N)(h) (Homo sapiens, UniProt P08581, D1228N)
In short: as §1

[5] = molecular target: T3, PKCϵ(h) (Homo sapiens, UniProt Q02156)
T3 sequence (Q02156 1-737): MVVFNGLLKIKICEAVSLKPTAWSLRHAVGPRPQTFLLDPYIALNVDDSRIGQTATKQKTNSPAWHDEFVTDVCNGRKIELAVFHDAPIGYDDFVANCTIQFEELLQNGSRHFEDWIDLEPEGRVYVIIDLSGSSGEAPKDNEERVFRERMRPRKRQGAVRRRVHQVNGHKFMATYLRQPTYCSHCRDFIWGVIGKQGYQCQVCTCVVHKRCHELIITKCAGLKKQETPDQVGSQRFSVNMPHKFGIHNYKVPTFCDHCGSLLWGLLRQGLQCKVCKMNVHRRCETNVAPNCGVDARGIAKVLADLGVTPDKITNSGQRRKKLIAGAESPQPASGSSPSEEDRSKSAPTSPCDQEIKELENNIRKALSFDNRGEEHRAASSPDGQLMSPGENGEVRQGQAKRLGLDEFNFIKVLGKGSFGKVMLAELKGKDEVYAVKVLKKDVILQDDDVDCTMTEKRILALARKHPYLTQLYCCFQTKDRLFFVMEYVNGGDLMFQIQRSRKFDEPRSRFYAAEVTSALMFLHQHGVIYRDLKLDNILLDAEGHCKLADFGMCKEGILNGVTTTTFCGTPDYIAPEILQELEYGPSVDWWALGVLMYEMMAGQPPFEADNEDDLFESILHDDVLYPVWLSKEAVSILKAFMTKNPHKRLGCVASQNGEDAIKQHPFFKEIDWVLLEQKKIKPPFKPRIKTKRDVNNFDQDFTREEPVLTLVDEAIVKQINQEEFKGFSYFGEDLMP
In short: as §1

[6] = molecular target: T4, TAO1(h) (Homo sapiens, UniProt Q7L7X3)
T4 sequence (Q7L7X3 1-1001): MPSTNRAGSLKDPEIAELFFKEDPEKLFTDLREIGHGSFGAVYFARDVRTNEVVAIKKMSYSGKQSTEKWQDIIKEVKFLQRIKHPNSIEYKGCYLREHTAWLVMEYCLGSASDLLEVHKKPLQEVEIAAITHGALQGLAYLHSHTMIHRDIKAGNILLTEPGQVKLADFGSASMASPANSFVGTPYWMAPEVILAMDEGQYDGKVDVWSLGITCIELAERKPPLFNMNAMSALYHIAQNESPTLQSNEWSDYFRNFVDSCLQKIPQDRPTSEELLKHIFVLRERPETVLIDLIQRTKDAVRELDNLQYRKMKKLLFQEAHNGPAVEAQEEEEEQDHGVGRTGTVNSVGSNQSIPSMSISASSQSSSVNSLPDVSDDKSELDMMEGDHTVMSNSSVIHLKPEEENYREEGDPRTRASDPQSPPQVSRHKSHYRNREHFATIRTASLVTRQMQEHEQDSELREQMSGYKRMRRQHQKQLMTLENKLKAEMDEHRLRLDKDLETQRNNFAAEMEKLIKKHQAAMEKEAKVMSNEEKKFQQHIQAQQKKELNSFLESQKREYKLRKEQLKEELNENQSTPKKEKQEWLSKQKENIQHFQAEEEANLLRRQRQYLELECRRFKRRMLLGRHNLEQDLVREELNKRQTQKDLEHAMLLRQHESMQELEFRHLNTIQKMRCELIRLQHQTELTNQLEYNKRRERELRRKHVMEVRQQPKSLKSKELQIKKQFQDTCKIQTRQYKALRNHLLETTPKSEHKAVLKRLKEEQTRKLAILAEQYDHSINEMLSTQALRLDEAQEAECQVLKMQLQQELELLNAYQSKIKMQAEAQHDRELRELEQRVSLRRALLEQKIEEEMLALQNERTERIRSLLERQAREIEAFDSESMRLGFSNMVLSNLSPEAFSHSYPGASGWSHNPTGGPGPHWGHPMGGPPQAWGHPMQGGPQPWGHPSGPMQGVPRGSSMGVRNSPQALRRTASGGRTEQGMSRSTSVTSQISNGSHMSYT
In short: as §1

[7] = molecular target: ZIPK(h) (Homo sapiens, UniProt O43293)
In short: as §1

[8] = molecular target: cKit(h) (Homo sapiens, UniProt P10721)
In short: as §1

[9] = molecular target: Fgr(h) (Homo sapiens, UniProt P09769)
In short: as §1

T1 sequence (P51617 whole entry): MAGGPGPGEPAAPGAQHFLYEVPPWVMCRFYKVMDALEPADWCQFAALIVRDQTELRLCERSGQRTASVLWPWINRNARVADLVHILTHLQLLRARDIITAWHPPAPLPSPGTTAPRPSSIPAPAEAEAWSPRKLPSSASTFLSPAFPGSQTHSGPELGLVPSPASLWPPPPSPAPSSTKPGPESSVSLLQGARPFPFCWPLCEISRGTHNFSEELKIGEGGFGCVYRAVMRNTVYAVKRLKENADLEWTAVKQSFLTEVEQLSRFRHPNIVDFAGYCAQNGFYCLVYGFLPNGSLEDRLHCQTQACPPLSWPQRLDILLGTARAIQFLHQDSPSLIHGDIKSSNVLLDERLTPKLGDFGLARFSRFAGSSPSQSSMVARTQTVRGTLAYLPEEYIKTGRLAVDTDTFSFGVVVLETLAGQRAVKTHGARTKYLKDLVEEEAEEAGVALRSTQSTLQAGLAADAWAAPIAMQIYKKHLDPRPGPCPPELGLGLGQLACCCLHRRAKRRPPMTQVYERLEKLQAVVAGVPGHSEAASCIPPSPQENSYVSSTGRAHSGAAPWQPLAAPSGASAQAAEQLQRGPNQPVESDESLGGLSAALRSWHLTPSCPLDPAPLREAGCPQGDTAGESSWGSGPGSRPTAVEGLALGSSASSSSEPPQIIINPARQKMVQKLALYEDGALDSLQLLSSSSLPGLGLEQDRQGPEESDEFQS
ZIPK(h), sequence (O43293 whole entry): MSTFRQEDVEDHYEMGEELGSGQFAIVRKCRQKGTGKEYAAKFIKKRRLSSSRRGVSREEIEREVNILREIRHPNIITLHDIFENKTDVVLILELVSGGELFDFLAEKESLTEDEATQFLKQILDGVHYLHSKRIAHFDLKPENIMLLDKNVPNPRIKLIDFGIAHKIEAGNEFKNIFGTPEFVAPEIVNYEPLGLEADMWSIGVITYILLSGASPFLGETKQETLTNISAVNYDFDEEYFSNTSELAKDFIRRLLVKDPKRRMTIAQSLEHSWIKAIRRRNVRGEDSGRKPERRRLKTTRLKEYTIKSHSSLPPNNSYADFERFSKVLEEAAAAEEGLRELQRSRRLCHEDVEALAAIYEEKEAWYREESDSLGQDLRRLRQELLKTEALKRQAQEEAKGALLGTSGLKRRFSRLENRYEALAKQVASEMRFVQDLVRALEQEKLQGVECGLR

## HRRIKAWLKKIKALARQLGVAA (Mammalian) [MMI-0500]
[1]
  F1t3(h) % activity: 17%
[2]
  IRAK1(h) % activity: 5%
[3]
  MST1(h) % activity: 3%
[4]
  Met(D1246N)(h) % activity: 90%
[5]
  PKCϵ(h) % activity: 23%
[6]
  TAO1(h) % activity: 24%
[7]
  ZIPK(h) % activity: 1%
[8]
  cKit(h) % activity: 45%

## FAKLAARLYRKALARQLGVAA [MMI-0300]
[1]
  F1t3(h) % activity: 84%
[9]
  Fgr(h) % activity: 60%
[2]
  IRAK1(h) % activity: 95%
[3]
  MST1(h) % activity: 14%
[4]
  Met(D1246N)(h) % activity: 82%
[5]
  PKCϵ(h) % activity: 79%
[6]
  TAO1(h) % activity: 82%
[7]
  ZIPK(h) % activity: 28%
[8]
  cKit(h) % activity: 53%

## YARAAARQARAKALNRQLGVA (Mammalian) [MMI-0200]
[1]
  F1t3(h) % activity: 99%
[9]
  Fgr(h) % activity: 71%
[2]
  IRAK1(h) % activity: 101%
[3]
  MST1(h) % activity: 72%
[4]
  Met(D1246N)(h) % activity: 149%
[5]
  PKCϵ(h) % activity: 98%
[7]
  ZIPK(h) % activity: 67%
[8]
  cKit(h) % activity: 110%

## KAFAKLAARLYRKALARQLGVAA [MMI-0400]
[1]
  F1t3(h) % activity: 18%
[9]
  Fgr(h) % activity: 47%
[2]
  IRAK1(h) % activity: 93%
[3]
  MST1(h) % activity: 6%
[4]
  Met(D1246N)(h) % activity: 31%
[5]
  PKCϵ(h) % activity: 59%
[6]
  TAO1(h) % activity: 73%
[7]
  ZIPK(h) % activity: 13%
[8]
  cKit(h) % activity: 43%
